Experiments:
[1] = target: T1, RAD51 WT (Homo sapiens, UniProt Q06609 1-339); test: EMSA; 1 mM ATP, 1 mM Mg2+; no Ex27; complex disassembled by GST-BRC3; EMSA: 10 mM Tris-HCl pH 7.5, 10 mM KCl, 1 mM MgCl2, 1 mM ATP, 1 mM DTT, 25 C, 25 nM DNA, 1.1 uM RAD51; BLI: 50 mM Tris-HCl pH 7.5, 50 mM KCl, 5 mM MgCl2, 2 mM ATP, 0.05% Tween 20, 15 nM DNA; stopped-flow buffer not in material; details: protein: recombinant; chain copies: 10; label: 5' FAM (FITC); single strand
[2] = target: T2, RAD51 WT;BRCA2 Ex27 peptide (TR2) (Homo sapiens;Homo sapiens, UniProt Q06609;P51587 1-339;, |); test: EMSA super-shift; 5.7 uM Ex27, 1 mM ATP, 1 mM Mg2+; almost completely resistant to GST-BRC3; EMSA: 10 mM Tris-HCl pH 7.5, 10 mM KCl, 1 mM MgCl2, 1 mM ATP, 1 mM DTT, 25 C, 25 nM DNA, 1.1 uM RAD51; BLI: 50 mM Tris-HCl pH 7.5, 50 mM KCl, 5 mM MgCl2, 2 mM ATP, 0.05% Tween 20, 15 nM DNA; stopped-flow buffer not in material; details: tags: ;; label: 5' FAM (FITC); single strand
[3] = target: T2, RAD51 WT;BRCA2 Ex27 peptide (TR2); test: stopped-flow PIFE; Ex27 increases amplitude and decreases binding rate; EMSA: 10 mM Tris-HCl pH 7.5, 10 mM KCl, 1 mM MgCl2, 1 mM ATP, 1 mM DTT, 25 C, 25 nM DNA, 1.1 uM RAD51; BLI: 50 mM Tris-HCl pH 7.5, 50 mM KCl, 5 mM MgCl2, 2 mM ATP, 0.05% Tween 20, 15 nM DNA; stopped-flow buffer not in material; details: tags: ;; label: 5' Cy3; single strand
[4] = target: T3, RAD51 S181P (SP) (Homo sapiens, UniProt Q06609 1-339, S181P); test: stopped-flow PIFE; no Ex27; similar mechanism to WT, slower assembly at suboptimal concentrations; EMSA: 10 mM Tris-HCl pH 7.5, 10 mM KCl, 1 mM MgCl2, 1 mM ATP, 1 mM DTT, 25 C, 25 nM DNA, 1.1 uM RAD51; BLI: 50 mM Tris-HCl pH 7.5, 50 mM KCl, 5 mM MgCl2, 2 mM ATP, 0.05% Tween 20, 15 nM DNA; stopped-flow buffer not in material; details: protein: recombinant; chain copies: 10; label: 5' Cy3; single strand
[5] = target: T1, RAD51 WT; test: stopped-flow PIFE; no Ex27; EMSA: 10 mM Tris-HCl pH 7.5, 10 mM KCl, 1 mM MgCl2, 1 mM ATP, 1 mM DTT, 25 C, 25 nM DNA, 1.1 uM RAD51; BLI: 50 mM Tris-HCl pH 7.5, 50 mM KCl, 5 mM MgCl2, 2 mM ATP, 0.05% Tween 20, 15 nM DNA; stopped-flow buffer not in material; details: protein: recombinant; chain copies: 10; label: 5' Cy3; single strand
[6] = target: T3, RAD51 S181P (SP); test: BLI; 2 mM ATP, 5 mM Mg2+; 2 uM RAD51; dissociated by GST-BRC4; EMSA: 10 mM Tris-HCl pH 7.5, 10 mM KCl, 1 mM MgCl2, 1 mM ATP, 1 mM DTT, 25 C, 25 nM DNA, 1.1 uM RAD51; BLI: 50 mM Tris-HCl pH 7.5, 50 mM KCl, 5 mM MgCl2, 2 mM ATP, 0.05% Tween 20, 15 nM DNA; stopped-flow buffer not in material; details: protein: recombinant; chain copies: 10; label: 3' biotin; single strand
[7] = target: T1, RAD51 WT; test: as above; details: protein: recombinant; chain copies: 10; label: 3' biotin; single strand

T1 sequence (Q06609 whole entry): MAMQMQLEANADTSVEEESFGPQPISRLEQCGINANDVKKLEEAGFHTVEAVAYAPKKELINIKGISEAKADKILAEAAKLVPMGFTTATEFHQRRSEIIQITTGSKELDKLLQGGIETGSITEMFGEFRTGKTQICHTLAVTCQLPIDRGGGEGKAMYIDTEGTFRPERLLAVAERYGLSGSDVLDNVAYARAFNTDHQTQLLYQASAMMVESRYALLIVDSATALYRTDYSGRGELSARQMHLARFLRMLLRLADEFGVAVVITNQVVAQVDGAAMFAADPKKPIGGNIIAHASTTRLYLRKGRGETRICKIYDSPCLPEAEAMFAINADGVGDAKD
T3 sequence (Q06609 whole entry S181P): as the sequence (Q06609 whole entry) above, with S181P counted along it

B1: 5'FITC-90mer ssDNA (ssDNA)
DNA: AAATCAATCTAAAGTATATATGAGTAAACTTGGTCTGACAGTTACCAATGCTTAATCAGTGAGGCACCTATCTCAGCGATCTGTCTATTT
binding result [1]: binds
binding result [2]: binds

B2: Cy3-(dT)79 (ssDNA)
DNA: TTTTTTTTTTTTTTTTTTTTTTTTTTTTTTTTTTTTTTTTTTTTTTTTTTTTTTTTTTTTTTTTTTTTTTTTTTTTTTT
binding result [3]: binds
binding result [4]: binds
binding result [5]: binds

TTTTTTTTTTTTTTTTTTTTTTTTTTTTTTTTTTTTTTTTTTT (ssDNA) [oligo-dT 43-mer]
binding result [6]: binds
binding result [7]: binds

Reference: article PMC10993188, “RAD51 separation of function mutation disables replication fork maintenance but preserves DSB repair”
